The results in this text go back to patent US20230059489A1 (Pfizer, published 2023).

One assay has as its target T1, mouse FLT3 (mFlt3) (mouse (printed as mFlt3), UniProt Q00342 28-544, limits assumed).
T1 construct: Construct not described
T1 sequence (looked up): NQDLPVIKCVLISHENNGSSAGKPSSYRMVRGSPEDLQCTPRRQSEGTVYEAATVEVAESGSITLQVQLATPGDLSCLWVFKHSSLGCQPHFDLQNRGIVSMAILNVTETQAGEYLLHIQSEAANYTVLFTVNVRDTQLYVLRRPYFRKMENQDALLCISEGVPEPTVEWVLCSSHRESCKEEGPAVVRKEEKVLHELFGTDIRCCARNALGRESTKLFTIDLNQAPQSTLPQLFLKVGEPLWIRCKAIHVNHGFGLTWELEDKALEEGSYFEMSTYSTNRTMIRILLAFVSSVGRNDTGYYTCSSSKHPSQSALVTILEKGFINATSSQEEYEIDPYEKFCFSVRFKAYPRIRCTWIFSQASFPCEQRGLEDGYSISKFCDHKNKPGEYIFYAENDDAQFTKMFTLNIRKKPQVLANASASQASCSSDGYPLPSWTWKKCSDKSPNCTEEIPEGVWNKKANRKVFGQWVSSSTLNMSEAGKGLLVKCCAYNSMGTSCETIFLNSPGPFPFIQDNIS
Put plainly: SPR, Table 6, IgG format, mFlt3 column; set-up for mFlt3 not described.

The next assay deals with T2, human FLT3 (hFLT3) (human, UniProt P36888 27-543).
T2 construct: also called huFlt3; Fms-Like Tyrosine Kinase 3
T2 sequence (looked up): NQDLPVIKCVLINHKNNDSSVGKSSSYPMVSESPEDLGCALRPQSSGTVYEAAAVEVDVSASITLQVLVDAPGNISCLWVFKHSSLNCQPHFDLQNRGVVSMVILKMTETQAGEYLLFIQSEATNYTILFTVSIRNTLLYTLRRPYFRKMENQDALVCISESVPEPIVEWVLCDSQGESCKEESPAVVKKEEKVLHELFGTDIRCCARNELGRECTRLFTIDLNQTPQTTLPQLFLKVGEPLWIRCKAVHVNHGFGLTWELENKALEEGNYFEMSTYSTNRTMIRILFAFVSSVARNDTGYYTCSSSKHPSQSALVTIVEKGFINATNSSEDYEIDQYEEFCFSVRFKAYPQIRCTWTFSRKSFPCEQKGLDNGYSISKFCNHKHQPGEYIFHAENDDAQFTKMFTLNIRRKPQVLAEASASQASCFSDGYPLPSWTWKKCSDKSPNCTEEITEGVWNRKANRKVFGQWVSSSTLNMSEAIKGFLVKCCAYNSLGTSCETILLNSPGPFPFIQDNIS
Put plainly: SPR (Biacore T200), 37 C; IgG captured on anti-human Fc, hFLT3 as analyte. On the procedure: All experiments were performed on a Biacore T200 surface Plasmon resonance biosensor (GE Lifesciences, Piscataway N.J.).
The sensor chip preparation was performed at 25° C. with a running buffer of 10 mM HEPES, 150 mM NaCl, 0.05% (v/v) Tween-20, pH 7.4. An anti-human Fc sensor chip was made by activating all flow cells of a Biacore CM4 sensor chip with a 1:1 (v/v) mixture of 400 mM EDC and 100 mM NHS for 7 minutes, at a flow rate of 10 μL/min. An anti-human Fc reagent (Goat Anti-Human IgG Fc, Southern Biotech Catalog #2081-01) was diluted to 30 μg/mL in 10 mM Sodium Acetate pH 4.5 and injected on all flow cells for 7 minutes at 20 μL/min. All flow cells were blocked with 100 mM ethylenediamine in 150 mM Borate buffer pH 8.5 for 7 minutes at 10 μL/min.
The experiments were performed at 37° C. using a running buffer of 10 mM HEPES, 150 mM NaCl, 0.05% (v/v) Tween-20, pH 7.4, 1 mg/mL BSA. FLT3 antibodies were captured from undiluted supernatants onto downstream flow cells (flow cells 2, 3 and 4) at a flow rate of 10 μL/min for 1 minute. Different antibodies were captured on each flow cell. Flow cell 1 was used as a reference surface. Following capture of FLT3 antibodies, analyte (buffer, hFLT3) was injected at 30 μL/min on all flow cells for two minutes. After the analyte injection, dissociation was monitored for 10 minutes followed by regeneration of all flow cells with three 1-minute injections of 75 mM Phosphoric Acid. For each captured FLT3 antibody, the following analyte injections were performed: buffer, 11 nM hFLT3, 33 nM hFLT3, 100 nM hFLT3 and 300 nM hFLT3. Buffer cycles were collected for each captured FLT3 antibody for double-referencing purposes (double-referencing as described in Myszka, D. G. Improving biosensor analysis. J. Mol. Recognit. 12, 279-284 (1999)). The double-referenced sensorgrams were fit globally to a simple 1:1 Langmuir with mass transport binding model.

B1: P7F9 (IgG format) (antibody, V domains shown)
VH: EVQLLESGGGLVQPGGSLRLSCAASGFTFSSYAMSWVRQAPGKGLEWVSAIGGSGGSTYYADSVKGRFTISRDNSKNTLYLQMNSLRAEDTAMYYCARDYYAFSDPAYGGMDVWGQGTLVTVSS
VL: NFMLTQPHSVSESPGKTVTISCTRSSGSIASNYVQWYQQKPGQAPVLVVYDDSDRPSGIPERFSGSNSGNTATLTISRVEAGDEADYYCQVWDSSSDHWVFGGGTKLTVL
notes: IgG format, captured by anti-human Fc
In the assay with mouse FLT3 (mFlt3), B1 yielded a Kd of 13.8 nM. In the assay with human FLT3 (hFLT3), this molecule showed a Kd of 12 nM, a koff of 0.0013 s⁻¹, a kon of 110000 M⁻¹ s⁻¹ and a t1/2 of 8.9 min.

B2: P9B5 (IgG format) (antibody, V domains shown)
VH: EVQLLESGGGLVQPGGSLRLSCAASGFIFASYAMSWVRQAPGKGLEWVSEISSSGGSTTYADSVKGRFTISRDNSKNTLYLQMNSLRAEDTAVYYCARDRVMAGLGYDPFDYWGQGTLVTVSS
VL: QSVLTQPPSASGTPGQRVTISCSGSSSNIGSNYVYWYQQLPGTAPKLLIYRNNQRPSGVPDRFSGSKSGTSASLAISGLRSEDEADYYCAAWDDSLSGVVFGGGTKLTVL
notes: as for B1
B2: binding in the assay with mouse FLT3 (mFlt3) was put at a Kd of 1.5 nM. For the same molecule, in the assay with human FLT3 (hFLT3), the Kd stood at 11 nM, the koff turned out to be 0.00047 s⁻¹, the kon is 42000 M⁻¹ s⁻¹ and the t1/2 is 24.4 min.

B3: P4C7 (IgG format) (antibody, V domains shown)
VH: QVQLVQSGAEVKKPGSSVKVSCKASGGTFSSYTISWVRQAPGQGLEWMGGIIPAFGIANYAQKFQGRVTITADKSTSTAYMELSSLRSEDTAVYYCAKGGSYSLDYFDIWGQGTLVTVSS
VL: EIVLTQSPGTLSLSPGERATLSCRASQYVSASLLAWYQQKPGQAPRLLIYGASTRATGIPDRFSGSGSGTDFTLTISRLEPEDFAVYYCQQYARSSTFGQGTKVEIK
notes: as for B1
Molecule B3 yielded a dissociation constant Kd in the assay with mouse FLT3 (mFlt3) of 402 nM. In the assay with human FLT3 (hFLT3), this molecule came in with a Kd of 7.7 nM, a koff of 0.0012 s⁻¹, a kon of 160000 M⁻¹ s⁻¹ and a t1/2 of 9.3 min.

B4: P5A3 (IgG format) (antibody, V domains shown)
VH: QVQLVQSGAEVKKPGSSVKVSCKASGGTFSSYYIGWVRQAPGQGLEWMGGIIPWFGTANYAQKFQGRVTITADKSTNTAYMELSSLRSEDTAVYYCAADHHDSPSGYTSGGFDVWGQGTLVTVSS
VL: QSALTQPASVSGSPGQSITISCTGTSSDVGGYNYVSWYQQHPGKAPKLMIYEVSKRPSGVPDRFSGSKSGNTASLTVSGLQAEDEADYYCSSYAGSNTVVFGGGTKLTVL
notes: as for B1
In turn, B4 registered a Kd with mouse FLT3 (mFlt3) of 19.3 nM. In the assay with human FLT3 (hFLT3), this molecule yielded a Kd of 102 nM, a koff of 0.01 s⁻¹, a kon of 98000 M⁻¹ s⁻¹ and a t1/2 of 1.2 min.

B5: P4F6 (IgG format) (antibody, V domains shown)
VH: QVQLVQSGAEVKKPGSSVKVSCKASGGTFGSYGISWVRQAPGQGLEWMGGIIPIFGTVTYAQKFQGRVTITADESTRTAYMELSSLRSEDTAVYYCARDSWSGATGASDTWGQGTLVTVSS
VL: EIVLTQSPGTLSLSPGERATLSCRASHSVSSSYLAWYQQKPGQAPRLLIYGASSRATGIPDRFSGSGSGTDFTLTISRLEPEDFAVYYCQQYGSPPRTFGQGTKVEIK
notes: as for B1
For B5, in the assay with mouse FLT3 (mFlt3), the dissociation constant Kd came to 36.1 nM. In the assay with human FLT3 (hFLT3), this molecule gave a Kd of 25 nM, a koff of 0.0035 s⁻¹, a kon of 140000 M⁻¹ s⁻¹ and a t1/2 of 3.3 min.

B6: P7H3 (IgG format) (antibody, V domains shown)
VH: EVQLLESGGGLVQPGGSLRLSCAASGFTFSSYAMHWVRQAPGKGLEWVSAISGSGGSTYYADSVKGRFTISRDNSKNTLYLQMNSLRAEDTAVYYCARGTRWWWGDAFDHWGQGTLVTVSS
VL: QSVLTQPPSVSVAPGKTARITCGGNNIGSKSVHWYQQKPGQAPVLVIYYDSDRPSGIPERFSGSNSGNTATLTISRVEAGDEADYYCQVWDSSTAWVFGGGTKLTVL
notes: as for B1
B6 gave a Kd in the assay with mouse FLT3 (mFlt3) of 0.9 nM. In the assay with human FLT3 (hFLT3), this molecule yielded a Kd of 2 nM, a koff of 0.0018 s⁻¹, an association rate constant (kon) of 990000 M⁻¹ s⁻¹ and a t1/2 of 6.6 min.
